We go through four molecules from patent publication US20260265349A1 (GRIFFITH UNIVERSITY, published 2026).

The target in assay [1] is T1, norovirus GII.17 Kawasaki308 P domain (norovirus GII.17 Kawasaki308).
T1 construct: also called GII.17 P domain
T1 chain: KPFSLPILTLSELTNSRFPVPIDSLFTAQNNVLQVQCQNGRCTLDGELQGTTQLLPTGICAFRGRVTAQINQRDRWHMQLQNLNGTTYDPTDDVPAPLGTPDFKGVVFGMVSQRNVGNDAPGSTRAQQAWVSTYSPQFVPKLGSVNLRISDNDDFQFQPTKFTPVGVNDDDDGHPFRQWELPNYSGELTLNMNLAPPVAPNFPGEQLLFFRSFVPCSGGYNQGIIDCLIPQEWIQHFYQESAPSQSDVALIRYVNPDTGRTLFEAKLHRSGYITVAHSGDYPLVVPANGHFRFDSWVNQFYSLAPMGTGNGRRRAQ
The assay can be described thus: ITC, nanobody into P domain, 25 C. (In general: ITC needs no label: the signal is the heat of the interaction.)
Method: (§1) Isothermal calorimetry (ITC) experiments were done using an ITC-200 (Malvern). Samples were prepared in PBS and filtered prior to the experiments. […] Injections were performed until saturation was achieved. To correct for heats of dilution from titrants control experiments were performed by titrating nanobodies into PBS. The heat associated with the control titration was subtracted from raw binding data prior to fitting. The data was fitted using a single set-binding model (Origin 7.0 software). Nanobody binding sites on the P domains were assumed to be identical. All ITC experiments were performed in triplicate with the average and standard deviation calculated.

Assay [2] has as its target T2, norovirus GII.4 Sydney-2012 virus-like particles (norovirus GII.4 Sydney-2012, UniProt P54635 1-538).
T2 construct: also called GII.4 Sydney-2012 VLPs; GII.4 VLPs
T2 chain: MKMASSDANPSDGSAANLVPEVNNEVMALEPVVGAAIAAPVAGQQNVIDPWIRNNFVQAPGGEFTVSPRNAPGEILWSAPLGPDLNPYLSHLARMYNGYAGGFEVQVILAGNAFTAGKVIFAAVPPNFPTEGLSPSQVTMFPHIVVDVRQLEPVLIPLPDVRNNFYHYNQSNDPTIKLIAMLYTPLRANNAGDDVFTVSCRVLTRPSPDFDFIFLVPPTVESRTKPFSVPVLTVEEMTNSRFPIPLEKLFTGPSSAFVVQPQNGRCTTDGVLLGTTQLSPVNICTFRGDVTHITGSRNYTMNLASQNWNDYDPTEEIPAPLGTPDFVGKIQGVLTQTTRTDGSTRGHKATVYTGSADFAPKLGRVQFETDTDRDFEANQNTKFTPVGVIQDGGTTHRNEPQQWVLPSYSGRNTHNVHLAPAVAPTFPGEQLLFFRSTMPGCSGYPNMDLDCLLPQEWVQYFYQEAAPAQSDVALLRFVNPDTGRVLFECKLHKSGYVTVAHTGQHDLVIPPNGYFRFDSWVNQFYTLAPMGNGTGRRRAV
Kind of assay: direct ELISA on coated VLPs, heat map of OD492.

In assay [3] the target is T3, norovirus GII.10 Vietnam 026 virus-like particles (norovirus GII.10 Vietnam 026).
T3 construct: also called GII.10 VLPs
T3 chain: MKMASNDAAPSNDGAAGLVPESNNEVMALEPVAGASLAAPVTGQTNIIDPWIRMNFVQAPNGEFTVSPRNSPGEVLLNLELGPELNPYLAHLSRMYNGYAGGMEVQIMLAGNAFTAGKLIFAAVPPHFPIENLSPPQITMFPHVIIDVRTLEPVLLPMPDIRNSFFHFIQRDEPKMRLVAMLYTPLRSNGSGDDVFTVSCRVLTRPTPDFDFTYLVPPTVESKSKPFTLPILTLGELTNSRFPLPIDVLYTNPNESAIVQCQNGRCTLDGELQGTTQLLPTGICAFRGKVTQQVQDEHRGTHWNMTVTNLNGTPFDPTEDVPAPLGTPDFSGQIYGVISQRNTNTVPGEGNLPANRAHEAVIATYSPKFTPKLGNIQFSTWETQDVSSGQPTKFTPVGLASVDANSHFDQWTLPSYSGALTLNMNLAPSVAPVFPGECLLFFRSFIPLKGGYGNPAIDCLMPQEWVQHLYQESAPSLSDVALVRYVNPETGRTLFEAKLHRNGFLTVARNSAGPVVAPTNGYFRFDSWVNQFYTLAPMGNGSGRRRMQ
Kind of assay: direct ELISA on coated VLPs, heat map of OD492. In general terms: An ELISA detects its analyte on a solid surface through an enzyme-linked reagent.

Assay [4] has as its target T4, norovirus GII.17 Kawasaki308 virus-like particles (norovirus GII.17 Kawasaki308).
T4 construct: also called GII.17 Kawasaki308 VLPs; GII.17 VLPs
T4 chain: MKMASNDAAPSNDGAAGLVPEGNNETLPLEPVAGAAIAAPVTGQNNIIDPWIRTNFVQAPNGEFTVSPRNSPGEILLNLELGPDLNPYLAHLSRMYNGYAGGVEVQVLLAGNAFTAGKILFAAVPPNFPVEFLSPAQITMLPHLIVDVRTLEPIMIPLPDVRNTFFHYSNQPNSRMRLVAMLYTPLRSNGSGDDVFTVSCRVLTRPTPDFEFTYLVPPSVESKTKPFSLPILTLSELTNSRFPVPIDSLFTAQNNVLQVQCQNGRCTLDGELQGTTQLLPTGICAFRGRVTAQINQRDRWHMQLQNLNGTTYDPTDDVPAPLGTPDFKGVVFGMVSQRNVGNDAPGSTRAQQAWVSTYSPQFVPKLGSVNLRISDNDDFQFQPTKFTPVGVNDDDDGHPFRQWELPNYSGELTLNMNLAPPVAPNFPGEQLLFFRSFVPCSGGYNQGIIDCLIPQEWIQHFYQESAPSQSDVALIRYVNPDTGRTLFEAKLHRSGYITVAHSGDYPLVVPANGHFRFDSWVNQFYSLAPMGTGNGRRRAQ
The assay can be described thus: blocking ELISA: VLPs pre-incubated with nanobody, attachment to PGM (HBGA) coated plate.

Assay [5] deals with T4, norovirus GII.17 Kawasaki308 virus-like …. The assay can be described thus: direct ELISA on coated VLPs.
Assay [6] has as its target T2, norovirus GII.4 Sydney-2012 virus-like …. Kind of assay: direct ELISA on coated VLPs.
In assay [7] the target is T5, norovirus GII.4 Sydney-2012 P domain (norovirus GII.4 Sydney-2012).
T5 construct: also called GII.4 P domain
T5 chain: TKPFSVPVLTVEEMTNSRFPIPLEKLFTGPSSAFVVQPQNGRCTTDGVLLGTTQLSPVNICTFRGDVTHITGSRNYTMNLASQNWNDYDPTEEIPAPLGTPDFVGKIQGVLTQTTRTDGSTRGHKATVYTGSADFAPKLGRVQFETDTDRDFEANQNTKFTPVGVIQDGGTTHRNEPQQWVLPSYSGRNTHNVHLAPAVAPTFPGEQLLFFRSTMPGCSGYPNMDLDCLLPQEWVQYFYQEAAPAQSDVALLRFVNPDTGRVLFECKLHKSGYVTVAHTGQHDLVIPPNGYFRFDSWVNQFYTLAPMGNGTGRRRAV
Kind of assay: ITC, nanobody into P domain, 25 C.
Method: as §1

Assay [8] concerns the target T4, norovirus GII.17 Kawasaki308 virus-like …. Kind of assay: direct ELISA on coated VLPs, heat map of OD492.
For assay [9], the target named is T3, norovirus GII.10 Vietnam 026 virus-like …. The assay can be described thus: direct ELISA on coated VLPs, heat map of OD492.
Assay [10] concerns the target T2, norovirus GII.4 Sydney-2012 virus-like …. The assay can be described thus: blocking ELISA: VLPs pre-incubated with nanobody, attachment to PGM (HBGA) coated plate.
The target is the same in assay [11]. The assay can be described thus: direct ELISA, VLPs coated at 2 µg/mL, His-tagged nanobody detected with anti-His-HRP, OD490.

By Kd is commonly meant the concentration at which binding is half-saturated. Low readings indicate tighter binding, high ones weaker binding. As usually defined, the IC50 is the concentration needed to halve the response being measured. Higher therefore signals lower potency. One may read the EC50 (read off the curve) as the concentration that produces a half-maximal response. High values mean lower potency in that assay, low ones higher potency in that assay.

Several values for one entry are separate records, joined by “and”; a condition that tells them apart may be missing. Equal entries are not always repeated. Where two headings read alike, the source gives them in different places.

B1: NB-45 single domain antibody (VHH)
VHH: QVQLQESGGGLVQAGGSLRLSCTVSGRTDSESTMGWFRQAAGKGREFVAAMNWRYATTYHTDSVKGRFTISKDSAKNTMYLQMNSLKPEDTAVYYCAHRYIYGSLSDSGSYDNWGQGTQVTVSS
notes: also called GII.17 nanobody; not shown: C-terminal His tag ('His-tagged nanobodies')
Turning to B1, in [1], the “+TΔS” value was -4.4 kcal/mol, the Kd was determined as 101 nM, the ΔG was -9.82 kcal/mol and the ΔH is -5.43 kcal/mol. In addition, the binding result in assay [2] is “no binding”. For the same molecule, the binding result in assay [3] is “no binding”. In [4], this molecule displayed a half-maximal inhibitory concentration (IC50) of 0.46 µg/mL.

B2: NB-7 single domain antibody (VHH)
VHH: QVQLQESGGGLVQAGGSLRLSCAASGRTFSSYRMGWYRQAPGKEREFVAAITGSGDSTNYADSVKGRFTVSGNSARNLVYLQMNSLKPEDTAVYLCVAYRTGGPPQWGQGTQVTVSS
notes: as for B1
For B2, the “nanobody concentration at the cut-off (OD490 0.15)” value (“nanobody concentration” for short) in [5] was found to be 1.56 µg/mL. Also, in assay [1], the “+TΔS” value was determined as 10.2 kcal/mol, the Kd was determined as 40.9 nM, the ΔG is -10.1 kcal/mol and the ΔH is -20.3 kcal/mol. Further, in assay [2], the binding result is “no binding”. Besides, in assay [3], the binding result is “no binding”. Besides, the IC50 in assay [4] was 0.88 µg/mL.

B3: NB-76 single domain antibody (VHH, not shown: small tags and cut ends)
VHH: QVQLQESGGGLVQAGGSLRLSCAASGTIFSIDAFGWYRQAPGKQREWVAGITSGSSTIYADFVKGRFTISRDNAKNTVFLQMNSLKPEDTAVYYCNRAKPPTYYSLEPWGKGTQVTVSS
notes: also called GII.4 nanobody
Take B3: the “nanobody concentration” value in assay [6] turned out to be 0.38 µg/mL. For the same molecule, in assay [7], the “+TΔS” value was found to be 2.22 kcal/mol, binding was characterised by a dissociation constant (Kd) of 56.7 nM, the ΔG is -9.89 kcal/mol and the ΔH is -12.1 kcal/mol. For the same molecule, the binding result in assay [8] is given as “no binding”. For the same molecule, the binding result in assay [9] was “no binding”. In assay [10], this molecule came in with an IC50 of 1.42 µg/mL. For the same molecule, in assay [11], the “EC50 (read off the curve)” value is around 2 µg/mL.

B4: NB-2 single domain antibody (VHH)
VHH: QVQLQESGGGLVQAGGSLRLSCAASGRFFSSYAMGWFRQAPGKEREFVAAISWSGGSTYYADSVKGRFTTSRDNAKNTVYLLMNSLKPEDTAVYYCAAAREGAYYPDSYYRTVRYDYWGQGTQVTVSS
notes: as for B1
With B4, the “nanobody concentration” value in [5] worked out at 0.78 µg/mL. Further, in assay [1], the “+TΔS” value was 6.14 kcal/mol, the Kd was 7.5 nM, the ΔG was -11.1 kcal/mol and the ΔH was -17.2 kcal/mol. Besides, in assay [2], the binding result is “no binding”. In addition, the binding result in [3] is listed as “no binding”. The IC50 in assay [4] was 0.85 µg/mL and 0.84 µg/mL.
